The target in this assay is T1, S. cerevisiae Rad51 (S. cerevisiae), P25454.
T1 chain: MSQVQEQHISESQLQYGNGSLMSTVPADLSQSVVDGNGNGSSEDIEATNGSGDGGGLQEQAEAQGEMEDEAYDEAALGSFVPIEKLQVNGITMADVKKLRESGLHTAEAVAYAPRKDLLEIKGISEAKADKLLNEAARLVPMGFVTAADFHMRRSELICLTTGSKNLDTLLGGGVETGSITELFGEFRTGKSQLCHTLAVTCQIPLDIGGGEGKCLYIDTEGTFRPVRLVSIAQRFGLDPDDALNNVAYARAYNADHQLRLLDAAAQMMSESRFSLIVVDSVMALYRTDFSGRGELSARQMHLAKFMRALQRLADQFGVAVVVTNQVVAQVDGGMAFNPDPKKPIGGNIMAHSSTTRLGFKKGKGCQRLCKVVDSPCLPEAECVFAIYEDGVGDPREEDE
Put plainly: mass photometry; TwoMP instrument; protein diluted to about 8-10 nM decamers in the well; 50 mM Tris-acetate pH 7.5, 50 mM KCl, 5 mM MgCl2. Conditions: remark: other sources report otherwise.

B1: S. cerevisiae Rad51, P25454 1-400 (natural protein)
chain: MSQVQEQHISESQLQYGNGSLMSTVPADLSQSVVDGNGNGSSEDIEATNGSGDGGGLQEQAEAQGEMEDEAYDEAALGSFVPIEKLQVNGITMADVKKLRESGLHTAEAVAYAPRKDLLEIKGISEAKADKLLNEAARLVPMGFVTAADFHMRRSELICLTTGSKNLDTLLGGGVETGSITELFGEFRTGKSQLCHTLAVTCQIPLDIGGGEGKCLYIDTEGTFRPVRLVSIAQRFGLDPDDALNNVAYARAYNADHQLRLLDAAAQMMSESRFSLIVVDSVMALYRTDFSGRGELSARQMHLAKFMRALQRLADQFGVAVVVTNQVVAQVDGGMAFNPDPKKPIGGNIMAHSSTTRLGFKKGKGCQRLCKVVDSPCLPEAECVFAIYEDGVGDPREEDE
Broadly, the stoichiometry N is a count of units in the complex or per binding partner. The molecule B1 came in with a stoichiometry N of 15.

The values are drawn from article PMC10556141.
